Assay results published in doi:10.1101/2025.01.31.636011, “Discovery of a distinct BAM complex in the Bacteroidetes” (bioRxiv, 2025).

B1: BtBamG (Bt4306) (natural protein, UniProt Q89ZS0 18-542, looked up)
chain: CDDNTGGLGLGMFPGNDQNIKGKLSTFDVTTESVKTGDIYAKTNIGYIGKFTDETFGTYQAGFLAQLNCPDGLTFPEPYKEVTDASGNVISATGRMVVDDKDPENKDVTFIKDGNQIIGNIRAVELYLWYDSYFGDSLTACRLSVYELGGNGKETLNLDNAYYTDINPEDFYDSQNILGTKAYTAVDLSVKDSIRNLSTYVPSVHIAFKEDIATRVGGNILTAARKAKNADKEFNSQLFREAFQGIYVKSDYGDGTVLYIDQPQMNVVYKCYATDSITGKKLQKKDGSGKDSTYYSYRVFATTREVIQANQLKNDPERIDALIKEDKNTYLKSPAGIFTEATLPISDIQNELTGDTLNAVKLTFTNYNQTGDKKFGMAIPSTVMLVRKKFQDSFFKDNKLSDGVSSYLTSHTSSTNQYVFSNITKLVNACIAEKEEAKKNAGSSWDETKWLQENPDWNKVVLIPVLVTYDSSNTTTGQANIIRIQHDLKPGYVRLKGGSLGKTNPDYKLKLEVISTDFGLTTKSN
modifications: tri-acylated lipid anchor on the N-terminal cysteine; O-glycosylation (glycan on Ser309)
notes: also called Bt4306/BamG
B2: BtBamF (Bt4367) (natural protein, UniProt Q89ZL0 23-431, looked up)
chain: QNNTNSPYTRYGYGDLSDQSFGNSKAMGGIAFGLRDGAQINPTNPASYTAIDSLTFLFEGGVSLQNMNISGGGLKLNAKNASFDYLAMQFRLAPWMAMSVGLLPYSNVGYTVSDSQTTDNGLAYSRSFTGDGGLHQMYVGAGVKVLKNLSVGVNASYFWGDITRTRGMFYPGTSSYDSYQRKMVTSISDYKLDFGAQYTQALNKKSSLTIGAVYSPKHKLNNDYTSIVIMGASSSSYGTEYKDVLDATFELPNTFGVGFTYNYDKRLTVGADYSLQQWSKTNFGVVTSDENVRQDFNETFTYCDRTKISVGAEYIPNLIGRSYFAHIKYRLGAYYTTPYYKIDGKKASREYGVTAGFGLPVPRSRSILSISGQFVRVKGLETNMVNENIFRVSIGLTFNERWFFKRRVE
modifications: O-glycosylation (glycan on Ser75)
B3: BtBamI (Bt3612) (natural protein, UniProt Q8A1P7 20-196, looked up)
chain: CSETEEVGKYDNWRARNEAFIDSLANVYATASGRGGLERIEMLTAPGNYIYYKEMEPMTDHVVKAGNPKYTDYVKVYYKGTNILGEYFDGNFKGDNPVVDGKDPSEGDSPTTIFQVSGVITGWGEVLQRMEVGDRWKVYIPWDYAYGSSGTTGILGYSALVFDITLLDFANTEAELK
modifications: O-glycosylation (sites not given)
B4: PgBamG (PGN_1735) with a C-terminal 7His-tag (natural protein)
chain: CDDDLSPIGGSIQPPSDPVSARVDTLEFSVKTIPMGDIYNRTNYTLLGDLTDPEYGDLKADYIMQFKSPRNFKFKYPPKDGKIDSVKLSINYDSWAGDSTSIMKVSIYKINKAIPPSYYSTQELASLLDETQIIASQTFKAGNDSAFHRVRIPLPNEIGQKIYDLSVNNPSVFDTQESFYNNVLGGLYVTTTTGTGVVLSVYNTQMAIFYSYKVAADSTATASETFVNTSESYQVNHIKNSQISHLLQENDSLSCVKSPAGVMTQLTISKEQFTDAFTSNLSSSLAWQIGEAQFNISASKPSEGLMLSPPSYLLLLPQDSVRNFFEQEQTELMQPRTAFLSTIYNIKKREYRFSNISRLLMEHIKNNTEKTPEGKPYITKDLVLVLLPVKRQVAGASNSLYTSQLNNFMFPSGVKLQLGKKNKTARIGVYSMTYTDN
modifications: tri-acylated lipid anchor; O-glycosylation, 7 sites
notes: also called His-tagged BamG; source: P. gingivalis expressing C-terminally His-tagged BamG (homologous recombination), membranes solubilised in DDM; not shown: His7, C-terminal, kept

Columns and labels:
Settings in all cases: both partners purified
[1] = biological target: T1, BtBamA (Bt3725) with an N-terminal His7 tag (Bacteroides thetaiotaomicron, UniProt Q8A1E1 20-885); experiment: cryo-EM structure; BtBAM complex co-purified through BtBamAhis from B. theta membranes, in DDM, 8 mg/ml; two 3D classes and a composite model
T1 construct: also called BtBamAhis; BamAhis
T1 sequence (looked up): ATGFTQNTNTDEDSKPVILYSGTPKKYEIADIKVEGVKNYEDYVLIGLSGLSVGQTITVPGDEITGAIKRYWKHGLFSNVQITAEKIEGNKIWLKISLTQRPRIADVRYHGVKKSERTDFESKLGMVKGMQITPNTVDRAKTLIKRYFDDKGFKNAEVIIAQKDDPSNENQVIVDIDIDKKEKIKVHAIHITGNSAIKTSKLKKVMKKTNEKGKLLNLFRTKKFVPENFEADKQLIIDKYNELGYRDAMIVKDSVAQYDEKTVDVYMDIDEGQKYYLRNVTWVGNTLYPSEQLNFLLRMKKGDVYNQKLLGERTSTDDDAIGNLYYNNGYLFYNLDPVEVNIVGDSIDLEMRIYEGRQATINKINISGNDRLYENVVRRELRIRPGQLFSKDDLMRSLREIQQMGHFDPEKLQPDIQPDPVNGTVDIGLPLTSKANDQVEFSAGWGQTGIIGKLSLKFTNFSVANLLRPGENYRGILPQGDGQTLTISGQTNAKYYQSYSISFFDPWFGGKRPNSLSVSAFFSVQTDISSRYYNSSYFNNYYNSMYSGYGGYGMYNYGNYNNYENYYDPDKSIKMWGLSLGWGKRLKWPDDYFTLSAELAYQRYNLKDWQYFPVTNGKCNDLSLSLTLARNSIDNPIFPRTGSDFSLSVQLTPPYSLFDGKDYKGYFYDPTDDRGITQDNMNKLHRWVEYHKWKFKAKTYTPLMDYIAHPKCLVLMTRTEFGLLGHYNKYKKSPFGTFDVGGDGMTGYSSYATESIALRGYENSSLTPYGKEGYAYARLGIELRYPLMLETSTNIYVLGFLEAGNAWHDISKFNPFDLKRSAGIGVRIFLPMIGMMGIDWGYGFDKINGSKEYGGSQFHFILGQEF

BtBamG (Bt4306) [2] = biological target: B1; experiment: cryo-EM structure
BtBamG (Bt4306) [3] = biological target: B1; experiment: cryo-EM structure; BtBAM complex co-purified through BtBamAhis from B. theta membranes, in DDM, 8 mg/ml; two 3D classes and a composite model
PgBamA (PGN_0299) = biological target: T2, PgBamA (PGN_0299) (Porphyromonas gingivalis (endogenous in …, UniProt B2RHH3 20-891)); experiment: cryo-EM structure; PgBAM complex co-purified through C-terminally His-tagged PgBamG from P. gingivalis membranes, in DDM, 4.9 mg/ml
T2 construct: also called P. gingivalis BamA; source: endogenous, P. gingivalis expressing His-tagged BamG, membranes solubilised in DDM
T2 sequence: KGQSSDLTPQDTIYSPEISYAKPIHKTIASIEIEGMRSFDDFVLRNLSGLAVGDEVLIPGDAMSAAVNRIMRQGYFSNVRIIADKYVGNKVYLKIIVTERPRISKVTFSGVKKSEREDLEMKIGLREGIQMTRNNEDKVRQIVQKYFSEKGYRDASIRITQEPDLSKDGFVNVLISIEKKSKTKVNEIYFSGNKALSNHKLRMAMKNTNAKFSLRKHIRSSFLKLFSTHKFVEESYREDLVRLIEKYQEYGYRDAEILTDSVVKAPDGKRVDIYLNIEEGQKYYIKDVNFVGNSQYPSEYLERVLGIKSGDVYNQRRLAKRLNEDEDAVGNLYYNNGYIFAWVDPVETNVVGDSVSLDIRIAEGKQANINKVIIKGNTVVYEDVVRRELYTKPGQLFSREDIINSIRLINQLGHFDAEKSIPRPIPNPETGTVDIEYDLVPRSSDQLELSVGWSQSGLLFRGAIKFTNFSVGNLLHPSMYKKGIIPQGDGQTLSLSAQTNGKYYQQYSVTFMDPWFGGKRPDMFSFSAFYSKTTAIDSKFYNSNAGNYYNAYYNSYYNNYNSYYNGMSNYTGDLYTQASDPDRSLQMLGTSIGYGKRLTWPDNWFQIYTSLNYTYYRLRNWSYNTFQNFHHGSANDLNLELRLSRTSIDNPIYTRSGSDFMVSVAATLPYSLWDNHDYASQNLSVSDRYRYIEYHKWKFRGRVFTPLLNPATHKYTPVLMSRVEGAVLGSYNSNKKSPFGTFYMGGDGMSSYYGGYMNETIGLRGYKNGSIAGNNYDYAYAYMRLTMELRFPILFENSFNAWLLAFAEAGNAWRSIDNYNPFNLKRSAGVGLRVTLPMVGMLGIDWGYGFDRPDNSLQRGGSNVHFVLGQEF

B1
binding result [1]: binds

B2
binding result (BtBamG (Bt4306) [2]): binds

B3
binding result (BtBamG (Bt4306) [3]): binds

B4
binding result (PgBamA (PGN_0299)): binds
